Consider one molecule from PMC8514580, “Insight into the interaction between the RNA helicase CGH-1 and EDC-3 and its implications” (Scientific Reports, 2021).

Common to all, as to experiment: ITC; ligand (peptide or CAR-1 fragment, 0.5 mM) injected into CGH-1_(248-420) or mutant (0.05 mM) in the cell; 20 °C; Buffer B (20 mM Tris-HCl pH 7.5, 150 mM NaCl); one-binding-site model
Conditions in all cases: both partners purified
A general note: ITC needs no label: the signal is the heat of the interaction.

Test [1] has as its target T1, CGH-1_(248–420) K277E (C. elegans, UniProt Q95YF3 248-420, K277E).
T1 construct: Mutant of m1 made with the MutanBEST kit; source: E. coli Gold (DE3), purified (Ni-chelating resin, SEC Superdex 75)
T1 sequence (looked up): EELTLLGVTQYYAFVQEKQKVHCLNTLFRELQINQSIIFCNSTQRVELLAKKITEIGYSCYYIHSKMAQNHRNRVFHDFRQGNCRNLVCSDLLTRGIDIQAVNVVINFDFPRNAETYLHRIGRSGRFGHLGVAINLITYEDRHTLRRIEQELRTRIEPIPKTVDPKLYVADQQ

The target of test [2] is T2, CGH-1_(248–420) H269A (C. elegans, UniProt Q95YF3 248-420, H269A).
T2 construct: Mutant of m1 made with the MutanBEST kit; source: E. coli Gold (DE3), purified (Ni-chelating resin, SEC Superdex 75)
T2 sequence (looked up): T1 sequence (looked up) with H22A, E30K

For test [3], the target named is T3, CGH-1_(248–420) V262A (C. elegans, UniProt Q95YF3 248-420, V262A).
T3 construct: Mutant of m1 made with the MutanBEST kit; source: E. coli Gold (DE3), purified (Ni-chelating resin, SEC Superdex 75)
T3 sequence (looked up): T1 sequence (looked up) with V15A, E30K

In test [4] the target is T4, CGH-1_(248–420) R393A (C. elegans, UniProt Q95YF3 248-420, R393A).
T4 construct: Mutant of m1 made with the MutanBEST kit; source: E. coli Gold (DE3), purified (Ni-chelating resin, SEC Superdex 75)
T4 sequence (looked up): T1 sequence (looked up) with E30K, R146A

Test [5] addresses T5, CGH-1_(248–420) E396A (C. elegans, UniProt Q95YF3 248-420, E396A).
T5 construct: Mutant of m1 made with the MutanBEST kit; source: E. coli Gold (DE3), purified (Ni-chelating resin, SEC Superdex 75)
T5 sequence (looked up): T1 sequence (looked up) with E30K, E149A

In test [6] the target is T6, CGH-1_(248–420) Q266A (C. elegans, UniProt Q95YF3 248-420, Q266A).
T6 construct: Mutant of m1 made with the MutanBEST kit; source: E. coli Gold (DE3), purified (Ni-chelating resin, SEC Superdex 75)
T6 sequence (looked up): T1 sequence (looked up) with Q19A, E30K

The target of test [7] is T7, CGH-1_(248–420) F261A (C. elegans, UniProt Q95YF3 248-420, F261A).
T7 construct: Mutant of m1 made with the MutanBEST kit; source: E. coli Gold (DE3), purified (Ni-chelating resin, SEC Superdex 75)
T7 sequence (looked up): T1 sequence (looked up) with F14A, E30K

Where a chain is given by its changes, count along the chain named.

B1: PATR-1 peptide (CePATR-1_(30–67)) (peptide)
peptide: SDEDHNIFDDEFDAANDETFGGGLDNIGENAELENYAT
notes: PATR-1 (Pat1 ortholog), C. elegans, residues 30-67; Printed with free NH2 and COOH ends; also called PATR1_30-67^WT; CePATR-1 peptide; source: synthetic peptide (GL Biochem, Shanghai)
As to B1, the Kd – broadly, a measure of binding affinity in units of concentration – in test [1] amounted to 8.29 ± 0.99 µM; in test [2], 2.67 ± 0.44 µM; in test [3], 4.94 ± 0.79 µM; in test [4] it was 4.22 ± 0.62 µM; in test [5], 2.96 ± 0.34 µM; in test [6] it was 2.97 ± 0.29 µM. Also, the Kd in test [7] came to 6.62 ± 1.05 µM. Further, the dH is -19.6 ± 0.95 kcal/mol in test [1]; -15.4 ± 0.67 kcal/mol in test [2]; -17.3 ± 0.82 kcal/mol in test [3]; -16.6 ± 0.69 kcal/mol in test [4]; -16.3 ± 0.47 kcal/mol in test [5]; -16.6 ± 0.41 kcal/mol in test [6]. The same molecule registered a dH in test [7] of -13 ± 0.7 kcal/mol. In addition, the stoichiometry N (commonly a count of units in the complex or per binding partner) is 1.07 in test [1]; 0.94 in test [2]; 0.84 in test [3]; 0.8 in test [4]; 0.93 in test [5]; 0.86 in test [6]. In test [7], the “stoichiometry N” value came out at 0.76.
